# Numbered stars: 1 amine (or outer) side, 2 acyl side, 3 side chain; on linkers, the order of the positions; unused ones are H or OH. Bridge positions count the residues as written; N and C are the ends. Side chains are listed from the residue outwards. Ends that are not written are not given here. * marks the point of attachment. C20 diacid = O=C(O)CCCCCCCCCCCCCCCCCCC(=O)*; γGlu = O=C(O)[C@H](CCC(=O)[*:2])N[*:1]; AEEA = NCCOCCOCC(=O)O
# T1: rat amylin receptor (rat calcitonin receptor + rat RAMP 3) (rat, UniProt P32214 25-516; Q9JJ73 23-147)
# T1 construct: whole, on cells; Membranes of transiently transfected BHK tk'ts 13 cells (Assay VI); also called rAmylin-R; rat amylin 3(a) receptor
# T1 sequence (looked up) 1: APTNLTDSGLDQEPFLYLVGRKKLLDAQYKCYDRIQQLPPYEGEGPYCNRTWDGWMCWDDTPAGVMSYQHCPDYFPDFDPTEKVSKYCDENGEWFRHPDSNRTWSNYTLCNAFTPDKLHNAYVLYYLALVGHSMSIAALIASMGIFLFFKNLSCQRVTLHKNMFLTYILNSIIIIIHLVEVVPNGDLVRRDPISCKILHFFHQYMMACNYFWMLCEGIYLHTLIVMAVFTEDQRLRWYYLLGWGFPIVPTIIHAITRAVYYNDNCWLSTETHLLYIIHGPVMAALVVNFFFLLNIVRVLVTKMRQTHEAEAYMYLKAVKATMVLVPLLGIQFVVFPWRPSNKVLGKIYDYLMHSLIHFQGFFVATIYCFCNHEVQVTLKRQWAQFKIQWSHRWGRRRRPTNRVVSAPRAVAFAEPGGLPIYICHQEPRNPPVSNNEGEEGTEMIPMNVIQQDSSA
# T1 sequence (looked up) 2: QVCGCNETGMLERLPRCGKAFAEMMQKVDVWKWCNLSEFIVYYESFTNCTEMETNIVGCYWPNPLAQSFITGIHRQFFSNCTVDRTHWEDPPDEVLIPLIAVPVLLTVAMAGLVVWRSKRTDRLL
# T2: rat calcitonin receptor (rat, UniProt P32214 25-516)
# T2 construct: whole, on cells; Membranes of transiently transfected BHK tk'ts 13 cells (Assay VIII); also called rCTR
# T2 sequence (looked up): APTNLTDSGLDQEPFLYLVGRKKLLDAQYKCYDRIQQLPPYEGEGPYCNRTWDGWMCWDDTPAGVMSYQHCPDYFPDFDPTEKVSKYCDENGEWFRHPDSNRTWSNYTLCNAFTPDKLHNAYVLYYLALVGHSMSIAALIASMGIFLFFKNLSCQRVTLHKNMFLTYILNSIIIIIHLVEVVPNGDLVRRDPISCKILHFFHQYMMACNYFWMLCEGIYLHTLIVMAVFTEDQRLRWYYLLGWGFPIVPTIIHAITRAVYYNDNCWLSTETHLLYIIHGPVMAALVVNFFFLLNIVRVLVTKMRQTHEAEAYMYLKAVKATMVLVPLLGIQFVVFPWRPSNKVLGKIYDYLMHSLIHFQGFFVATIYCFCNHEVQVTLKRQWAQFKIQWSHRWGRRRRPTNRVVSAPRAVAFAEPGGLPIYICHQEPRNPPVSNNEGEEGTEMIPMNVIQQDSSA
# T3: human calcitonin receptor (human, UniProt P30988 25-474)
# T3 construct: whole, on cells; Membranes of a stably transfected BHK cell line (Assay VII); also called hCTR; hCT
# T3 sequence (looked up): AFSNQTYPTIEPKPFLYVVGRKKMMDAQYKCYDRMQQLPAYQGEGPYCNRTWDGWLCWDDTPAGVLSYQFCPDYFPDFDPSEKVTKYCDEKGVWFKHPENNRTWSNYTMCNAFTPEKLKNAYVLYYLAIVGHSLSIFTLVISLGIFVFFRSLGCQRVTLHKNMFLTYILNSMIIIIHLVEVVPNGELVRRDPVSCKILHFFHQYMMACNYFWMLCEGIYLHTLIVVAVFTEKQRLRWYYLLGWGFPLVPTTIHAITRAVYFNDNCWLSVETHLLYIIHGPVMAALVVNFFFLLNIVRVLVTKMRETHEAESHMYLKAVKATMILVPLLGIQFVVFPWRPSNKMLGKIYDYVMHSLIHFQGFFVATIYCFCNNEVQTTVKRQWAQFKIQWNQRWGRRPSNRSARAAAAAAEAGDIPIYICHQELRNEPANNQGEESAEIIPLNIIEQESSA
# Columns and labels:
# [1] = biological target: T1, rat amylin receptor (rat calcitonin …); assay: SPA competition with 125I-rat amylin, membranes of BHK cells with rat calcitonin receptor + rat RAMP3 (Assay VI)
# rat calcitonin receptor [2] = biological target: T2, rat calcitonin receptor; assay: SPA competition with 125I-calcitonin, membranes of BHK cells with rat calcitonin receptor (Assay VIII)
# rat calcitonin receptor [3] = biological target: T2, rat calcitonin receptor; assay: ratio IC50 rat calcitonin receptor / IC50 rat amylin receptor (reference)
# [4] = biological target: T3, human calcitonin receptor; assay: ratio IC50 human calcitonin receptor / IC50 human amylin receptor (reference)
# Method: The resulting pellet was resuspended, homogenized and centrifuged (20.000 rpm, 15 min) in a buffer containing 20 mM Na-HEPES and 0.1 mM EDTA (pH 7.4, buffer 2). The resulting pellet was resuspended in buffer 2 and protein concentration was measured (BCA protein Assay, Pierce). The homogenate was kept cold during the whole procedure. The membranes were kept at −80° C. until use. The assay was performed in a 384 well Optiplate (PerkinElmer) in a total volume of 40 ul. Membranes were mixed with SPA beads. Final concentration of membranes 35 ng/μL final and SPA beads was 0.05 mg/well. Test-compounds were dissolved in DMSO and further diluted in assay buffer (50 mM Hepes, pH 7.4, 1 mM CaCl2, 5 mM MgCl₂, 0.1% OA and 0.02% Tween20). […] The final mixture was incubated with shaking at 400 rpm for 120 min at 25° C. prior to centrifugation (1500 rpm, 10 min). Samples were analyzed on TopCounter™ (Packard). The IC₅₀ was calculated using (one site binding competition analysis) GraphPad Prism5 as a measure of receptor affinity.
# Membranes were prepared in the following way; the cells were rinsed with PBS and incubated with Versene for approximately 5 min before harvesting. The cells were flushed with PBS and the cell-suspension was centrifuged for 5 min at 1000 rpm. Cells were homogenized (Ultrathurrax) in a buffer containing 20 mM Na-HEPES and 10 mM EDTA (pH 7.4) and centrifuged at 20.000 rpm for 15 min. The resulting pellet was resuspended, homogenized and centrifuged (20.000 rpm, 15 min) in a buffer containing 20 mM Na-HEPES and 0.1 mM EDTA (pH 7.4, buffer 2). The resulting pellet was resuspended in buffer 2 and protein concentration was measured (BCA protein Assay, Pierce). The homogenate was kept cold during the whole procedure. The membranes were kept at −80° C. until use. Assay was performed in a 384 well Optiplate (PerkinElmer) in a total volume of 40 ul. Membranes were mixed with SPA beads.
IC50 [1],IC50 (rat calcitonin receptor [2]),Ratio rCT/rAmylin binding (rat calcitonin receptor [3]),Ratio hCT/hAmylin binding [4],Binder
2.07 nM,94.5 nM,45.6,35.6,"K([γGlu-γGlu-C20 diacid])CNTATCATQRLAEFLRHSSPNFGAIPSSTNVGHNTY-NH2 (disulfide 2-7; N-terminus assumed; SMILES CC[C@H](C)[C@H](NC(=O)[C@H](C)NC(=O)CNC(=O)[C@H](Cc1ccccc1)NC(=O)[C@H](CC(N)=O)NC(=O)[C@@H]1CCCN1C(=O)[C@H](CO)NC(=O)[C@H](CO)NC(=O)[C@H](Cc1c[nH]cn1)NC(=O)[C@H](CCCNC(=N)N)NC(=O)[C@H](CC(C)C)NC(=O)[C@H](Cc1ccccc1)NC(=O)[C@H](CCC(=O)O)NC(=O)[C@H](C)NC(=O)[C@H](CC(C)C)NC(=O)[C@H](CCCNC(=N)N)NC(=O)[C@H](CCC(N)=O)NC(=O)[C@@H](NC(=O)[C@H](C)NC(=O)[C@@H]1CSSC[C@H](NC(=O)[C@@H](N)CCCCNC(=O)CC[C@H](NC(=O)CC[C@H](NC(=O)CCCCCCCCCCCCCCCCCCC(=O)O)C(=O)O)C(=O)O)C(=O)N[C@@H](CC(N)=O)C(=O)N[C@@H]([C@@H](C)O)C(=O)N[C@@H](C)C(=O)N[C@@H]([C@@H](C)O)C(=O)N1)[C@@H](C)O)C(=O)N1CCC[C@H]1C(=O)N[C@@H](CO)C(=O)N[C@@H](CO)C(=O)N[C@H](C(=O)N[C@@H](CC(N)=O)C(=O)N[C@H](C(=O)NCC(=O)N[C@@H](Cc1c[nH]cn1)C(=O)N[C@@H](CC(N)=O)C(=O)N[C@H](C(=O)N[C@@H](Cc1ccc(O)cc1)C(N)=O)[C@@H](C)O)C(C)C)[C@@H](C)O, also called compound 87)"
0.246 nM,18.2 nM,74.1,42.2,"K([AEEA-C20 diacid])CNTATCATQRLAHFLRHSSPNFGAIPSSTNVGSNTY-NH2 (disulfide 2-7; N-terminus assumed; SMILES CC[C@H](C)[C@H](NC(=O)[C@H](C)NC(=O)CNC(=O)[C@H](Cc1ccccc1)NC(=O)[C@H](CC(N)=O)NC(=O)[C@@H]1CCCN1C(=O)[C@H](CO)NC(=O)[C@H](CO)NC(=O)[C@H](Cc1c[nH]cn1)NC(=O)[C@H](CCCNC(=N)N)NC(=O)[C@H](CC(C)C)NC(=O)[C@H](Cc1ccccc1)NC(=O)[C@H](Cc1c[nH]cn1)NC(=O)[C@H](C)NC(=O)[C@H](CC(C)C)NC(=O)[C@H](CCCNC(=N)N)NC(=O)[C@H](CCC(N)=O)NC(=O)[C@@H](NC(=O)[C@H](C)NC(=O)[C@@H]1CSSC[C@H](NC(=O)[C@@H](N)CCCCNC(=O)COCCOCCNC(=O)CCCCCCCCCCCCCCCCCCC(=O)O)C(=O)N[C@@H](CC(N)=O)C(=O)N[C@@H]([C@@H](C)O)C(=O)N[C@@H](C)C(=O)N[C@@H]([C@@H](C)O)C(=O)N1)[C@@H](C)O)C(=O)N1CCC[C@H]1C(=O)N[C@@H](CO)C(=O)N[C@@H](CO)C(=O)N[C@H](C(=O)N[C@@H](CC(N)=O)C(=O)N[C@H](C(=O)NCC(=O)N[C@@H](CO)C(=O)N[C@@H](CC(N)=O)C(=O)N[C@H](C(=O)N[C@@H](Cc1ccc(O)cc1)C(N)=O)[C@@H](C)O)C(C)C)[C@@H](C)O, also called compound 90) [N^ε1-[2-[2-[2-(19-carboxynonadecanoylamino)ethoxy]ethoxy]acetyl]-[His14,Arg17,Pro21,Pro27]-h-amylin]"
0.386 nM,29.4 nM,76.3,101,"K([AEEA-C20 diacid])CNTATCATQRLANFLRHSSPNFGAIPSSTNVGHNTY-NH2 (disulfide 2-7; N-terminus assumed; SMILES CC[C@H](C)[C@H](NC(=O)[C@H](C)NC(=O)CNC(=O)[C@H](Cc1ccccc1)NC(=O)[C@H](CC(N)=O)NC(=O)[C@@H]1CCCN1C(=O)[C@H](CO)NC(=O)[C@H](CO)NC(=O)[C@H](Cc1c[nH]cn1)NC(=O)[C@H](CCCNC(=N)N)NC(=O)[C@H](CC(C)C)NC(=O)[C@H](Cc1ccccc1)NC(=O)[C@H](CC(N)=O)NC(=O)[C@H](C)NC(=O)[C@H](CC(C)C)NC(=O)[C@H](CCCNC(=N)N)NC(=O)[C@H](CCC(N)=O)NC(=O)[C@@H](NC(=O)[C@H](C)NC(=O)[C@@H]1CSSC[C@H](NC(=O)[C@@H](N)CCCCNC(=O)COCCOCCNC(=O)CCCCCCCCCCCCCCCCCCC(=O)O)C(=O)N[C@@H](CC(N)=O)C(=O)N[C@@H]([C@@H](C)O)C(=O)N[C@@H](C)C(=O)N[C@@H]([C@@H](C)O)C(=O)N1)[C@@H](C)O)C(=O)N1CCC[C@H]1C(=O)N[C@@H](CO)C(=O)N[C@@H](CO)C(=O)N[C@H](C(=O)N[C@@H](CC(N)=O)C(=O)N[C@H](C(=O)NCC(=O)N[C@@H](Cc1c[nH]cn1)C(=O)N[C@@H](CC(N)=O)C(=O)N[C@H](C(=O)N[C@@H](Cc1ccc(O)cc1)C(N)=O)[C@@H](C)O)C(C)C)[C@@H](C)O, also called compound 91) [N^ε1-[2-[2-[2-(19-carboxynonadecanoylamino)ethoxy]ethoxy]acetyl]-[Arg17,Pro21,Pro27,His34]-h-amylin]"
5.45 nM,388 nM,71.3,63.4,"K([AEEA-AEEA-γGlu-C20 diacid])CNTATCATQRLANFLRHSSPNFGAIPSSTNVGRNTY-NH2 (disulfide 2-7; N-terminus assumed; SMILES CC[C@H](C)[C@H](NC(=O)[C@H](C)NC(=O)CNC(=O)[C@H](Cc1ccccc1)NC(=O)[C@H](CC(N)=O)NC(=O)[C@@H]1CCCN1C(=O)[C@H](CO)NC(=O)[C@H](CO)NC(=O)[C@H](Cc1c[nH]cn1)NC(=O)[C@H](CCCNC(=N)N)NC(=O)[C@H](CC(C)C)NC(=O)[C@H](Cc1ccccc1)NC(=O)[C@H](CC(N)=O)NC(=O)[C@H](C)NC(=O)[C@H](CC(C)C)NC(=O)[C@H](CCCNC(=N)N)NC(=O)[C@H](CCC(N)=O)NC(=O)[C@@H](NC(=O)[C@H](C)NC(=O)[C@@H]1CSSC[C@H](NC(=O)[C@@H](N)CCCCNC(=O)COCCOCCNC(=O)COCCOCCNC(=O)CC[C@H](NC(=O)CCCCCCCCCCCCCCCCCCC(=O)O)C(=O)O)C(=O)N[C@@H](CC(N)=O)C(=O)N[C@@H]([C@@H](C)O)C(=O)N[C@@H](C)C(=O)N[C@@H]([C@@H](C)O)C(=O)N1)[C@@H](C)O)C(=O)N1CCC[C@H]1C(=O)N[C@@H](CO)C(=O)N[C@@H](CO)C(=O)N[C@H](C(=O)N[C@@H](CC(N)=O)C(=O)N[C@H](C(=O)NCC(=O)N[C@@H](CCCNC(=N)N)C(=O)N[C@@H](CC(N)=O)C(=O)N[C@H](C(=O)N[C@@H](Cc1ccc(O)cc1)C(N)=O)[C@@H](C)O)C(C)C)[C@@H](C)O, also called compound 95)"

# Reference: patent publication US20140087995A1 (published 2014)
